Data on 4 substances can be found in PMC5737501.

Read-outs that look alike come from different tables or passages of the source.

Assay in all cases: single-molecule TIRF colocalisation imaging
The target in test [1] is H3K9me3 chromatin fiber, 12 × 601 array with 177 bp nucleosome repeat length (a177) (human) (UniProt P62805).
In test [2] the target is H3K9me3 and H4KS16ac chromatin fiber, 12 × 601 array with 177 bp NRL (a177) (human) (UniProt P62805).
For test [3], the target named is H3K9me3 and H4KS16ac chromatin fiber, 12 × 601 array with 197 bp NRL (a197) (human) (UniProt P62805).
The target of test [4] is H3K9me3 chromatin fiber, 12 × 601 array with 177 bp nucleosome repeat length (a177) (human) (UniProt P62805). The source holds these as a separate data set.
In test [5] the target is H3K9me3 chromatin fiber, 12 × 601 array with 197 bp nucleosome repeat length (a197) (human) (UniProt P62805).

Chain of HP1β, labeled with Atto532 at its C-terminus (P83916 whole entry): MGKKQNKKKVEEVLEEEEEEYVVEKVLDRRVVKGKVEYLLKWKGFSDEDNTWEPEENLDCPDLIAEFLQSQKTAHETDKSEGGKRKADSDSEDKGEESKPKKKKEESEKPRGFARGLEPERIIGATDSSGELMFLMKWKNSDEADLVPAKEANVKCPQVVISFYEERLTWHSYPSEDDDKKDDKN
Chain of HP1γ, labeled with Atto532 at its C-terminus (Q13185 whole entry): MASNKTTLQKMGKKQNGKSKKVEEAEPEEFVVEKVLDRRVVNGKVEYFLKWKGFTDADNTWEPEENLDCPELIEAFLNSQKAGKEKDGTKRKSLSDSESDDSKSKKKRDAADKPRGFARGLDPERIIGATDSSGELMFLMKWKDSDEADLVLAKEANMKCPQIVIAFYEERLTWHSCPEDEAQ
Chain of Phosphorylated HP1α (pHP1α), Atto532-labeled, phosphorylated with casein kinase 2 (P45973 whole entry): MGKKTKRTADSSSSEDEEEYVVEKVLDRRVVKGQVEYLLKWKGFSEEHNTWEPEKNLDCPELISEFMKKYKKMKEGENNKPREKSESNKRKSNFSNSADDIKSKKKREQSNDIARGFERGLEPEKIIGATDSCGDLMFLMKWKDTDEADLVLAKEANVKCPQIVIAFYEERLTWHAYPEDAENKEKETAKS
Chain of HP1α, labeled with Atto532 at its C-terminus (P45973 whole entry): as above

Usually kon stands for a measure of how fast the partners come together. The low end stands for slower complex formation, the high end for faster complex formation. For “HP1α, labeled with Atto532 at its C-terminus (from UniProt P45973 1-191) (natural protein)”, the kon is 360000 M⁻¹ s⁻¹ in test [1]; 2.76e+06 M⁻¹ s⁻¹ in test [2]; 2.25e+06 M⁻¹ s⁻¹ in test [3]; 1.1e+06 M⁻¹ s⁻¹ in test [4]; 2.51e+06 M⁻¹ s⁻¹ in test [5]. The tau off,1 (residence time, fast phase) in test [1] is 0.14 s; in test [2] it was 0.19 s; in test [3] it was 0.16 s; in test [4] it was 0.19 s; in test [5], 0.24 s. Moreover, the tau off,2 (residence time, slow phase) is 2.97 s in test [1]; 1.92 s in test [2]; 2 s in test [3]; 3.32 s in test [4]; 2.49 s in test [5].
In test [4], “HP1β, labeled with Atto532 at its C-terminus (from UniProt P83916 1-185) (natural protein)” yielded a kon of 670000 M⁻¹ s⁻¹; a tau off,1 (residence time, fast phase) of 0.19 s; a tau off,2 (residence time, slow phase) of 3.6 s.
In test [4], “HP1γ, labeled with Atto532 at its C-terminus (from UniProt Q13185 1-183) (natural protein)” showed a kon of 890000 M⁻¹ s⁻¹; a tau off,1 (residence time, fast phase) of 0.17 s; a tau off,2 (residence time, slow phase) of 2.64 s.
In test [4], “Phosphorylated HP1α (pHP1α), Atto532-labeled, phosphorylated with casein kinase 2 (from UniProt P45973 1-191) (natural protein)” yielded a kon of 1.73e+06 M⁻¹ s⁻¹; a tau off,1 (residence time, fast phase) of 0.26 s; a tau off,2 (residence time, slow phase) of 5.6 s.
